Measurements taken from publication PMC7003067.

What follows are proteins tested on O=c1ccn([C@@H]2O[C@H](COP(=O)(O)OP(=O)(O)O[C@H]3O[C@H](CO)[C@H](O)[C@H](O)[C@H]3O)[C@@H](O)[C@H]2O)c(=O)[nH]1 (assay: UDP-Glo glycosyltransferase assay). Conditions: no acceptor, 50 mM Tris pH 7.5, 5 mM MnCl2, 37 °C, 60 min.
Type: biochemical, Homo sapiens

| Protein | Km |
| --- | --- |
| GLT8D1 (Homo sapiens) (protein) MSFRKVNIIILVLAVALFLLVLHHNFLSLSSLLRNEVTDSGIVGPQPIDFVPNALRHAVDGRQEEIPVVIAASEDRLGGAIAAINSIQHNTRSNVIFYIVTLNNTADHLRSWLNSDSLKSIRYKIVNFDPKLLEGKVKEDPDQGESMKPLTFARFYLPILVPSAKKAIYMDDDVIVQGDILALYNTALKPGHAAAFSEDCDSASTKVVIRGAGNQYNYIGYLDYKKERIRKLSMKASTCSFNPGVFVANLTEWKRQNITNQLEKWMKLNVEEGLYSRTLAGSITTPPLLIVFYQQHSTIDPMWNVRHLGSSAGKRYSPQFVKAAKLLHWNGHLKPWGRTASYTDVWEKWYIPDPTGKFNLIRRYTEISNIK | 3500 µM |
| GLT8D1 (Homo sapiens; R92C) (protein) MSFRKVNIIILVLAVALFLLVLHHNFLSLSSLLRNEVTDSGIVGPQPIDFVPNALRHAVDGRQEEIPVVIAASEDRLGGAIAAINSIQHNTCSNVIFYIVTLNNTADHLRSWLNSDSLKSIRYKIVNFDPKLLEGKVKEDPDQGESMKPLTFARFYLPILVPSAKKAIYMDDDVIVQGDILALYNTALKPGHAAAFSEDCDSASTKVVIRGAGNQYNYIGYLDYKKERIRKLSMKASTCSFNPGVFVANLTEWKRQNITNQLEKWMKLNVEEGLYSRTLAGSITTPPLLIVFYQQHSTIDPMWNVRHLGSSAGKRYSPQFVKAAKLLHWNGHLKPWGRTASYTDVWEKWYIPDPTGKFNLIRRYTEISNIK | 2500 µM |
| GLT8D1 (Homo sapiens; G78W) (protein) MSFRKVNIIILVLAVALFLLVLHHNFLSLSSLLRNEVTDSGIVGPQPIDFVPNALRHAVDGRQEEIPVVIAASEDRLWGAIAAINSIQHNTRSNVIFYIVTLNNTADHLRSWLNSDSLKSIRYKIVNFDPKLLEGKVKEDPDQGESMKPLTFARFYLPILVPSAKKAIYMDDDVIVQGDILALYNTALKPGHAAAFSEDCDSASTKVVIRGAGNQYNYIGYLDYKKERIRKLSMKASTCSFNPGVFVANLTEWKRQNITNQLEKWMKLNVEEGLYSRTLAGSITTPPLLIVFYQQHSTIDPMWNVRHLGSSAGKRYSPQFVKAAKLLHWNGHLKPWGRTASYTDVWEKWYIPDPTGKFNLIRRYTEISNIK | 2300 µM |
